Source: IntAct's records for PubMed 17190814

B1: Antiviral innate immune response receptor RIG-I (Homo sapiens), O95786-1 (parent)
chain: MTTEQRRSLQAFQDYIRKTLDPTYILSYMAPWFREEEVQYIQAEKNNKGPMEAATLFLKFLLELQEEGWFRGFLDALDHAGYSGLYEAIESWDFKKIEKLEEYRLLLKRLQPEFKTRIIPTDIISDLSECLINQECEEILQICSTKGMMAGAEKLVECLLRSDKENWPKTLKLALEKERNKFSELWIVEKGIKDVETEDLEDKMETSDIQIFYQEDPECQNLSENSCPPSEVSDTNLYSPFKPRNYQLELALPAMKGKNTIICAPTGCGKTFVSLLICEHHLKKFPQGQKGKVVFFANQIPVYEQQKSVFSKYFERHGYRVTGISGATAENVPVEQIVENNDIIILTPQILVNNLKKGTIPSLSIFTLMIFDECHNTSKQHPYNMIMFNYLDQKLGGSSGPLPQVIGLTASVGVGDAKNTDEALDYICKLCASLDASVIATVKHNLEELEQVVYKPQKFFRKVESRISDKFKYIIAQLMRDTESLAKRICKDLENLSQIQNREFGTQKYEQWIVTVQKACMVFQMPDKDEESRICKALFLYTSHLRKYNDALIISEHARMKDALDYLKDFFSNVRAAGFDEIEQDLTQRFEEKLQELESVSRDPSNENPKLEDLCFILQEEYHLNPETITILFVKTRALVDALKNWIEGNPKLSFLKPGILTGRGKTNQNTGMTLPAQKCILDAFKASGDHNILIATSVADEGIDIAQCNLVILYEYVGNVIKMIQTRGRGRARGSKCFLLTSNAGVIEKEQINMYKEKMMNDSILRLQTWDEAVFREKILHIQTHEKFIRDSQEKPKPVPDKENKKLLCRKCKALACYTADVRVIEECHYTVLGDAFKECFVSRPHPKPKQFSSFEKRAKIFCARQNCSHDWGIHVKYKTFEIPVIKIESFVVEDIATGVQTLYSKWKDFHFEKIPFDPAEMSK

Variants of: B1
Settings: with MAVS

Variant	effect of a mutation on the interaction
T55I	decreasing interaction strength
